Experiments:
C1Q = target: T1, C1Q (UniProt P02745 23-245; P02746 28-253; P02747 29-245); test: ELISA, antibody coated on the plate, C1q titrated (axis [C1q] nM), anti-human C1q-HRP detection
T1 construct: also called Clq
Experimental: ELISA Plates (Nunc) were coated with antibody samples at 3 μg/mL overnight at 4° C. After blocking and washing, C1q was gradient diluted starting from 600 μg/mL and incubated at room temperature for 2 hr. The plates were then washed and subsequently incubated with sheep anti-human C1q Ab-HRP for 1 hr. After washing, TMB substrate was added and the interaction was stopped by 2 M HCl. The absorbance at 450 nm was read using a microplate reader (Molecular Device).
The binding activity of antibodies to C1Q was tested by ELISA.

cynomolgus CD19 = target: T2, cynomolgus CD19 (cynomolgus monkey, UniProt A0A2K5W8L9 20-557); test: flow cytometry on CHO-K1 cells expressing cynomolgus CD19 (WBP701.CHO-K1.cpro1.FL.C9)
T2 construct: whole, on cells; also called monkey CD19; WBP701.CHO-K1.cpro1.FL.C9 cells
T2 sequence: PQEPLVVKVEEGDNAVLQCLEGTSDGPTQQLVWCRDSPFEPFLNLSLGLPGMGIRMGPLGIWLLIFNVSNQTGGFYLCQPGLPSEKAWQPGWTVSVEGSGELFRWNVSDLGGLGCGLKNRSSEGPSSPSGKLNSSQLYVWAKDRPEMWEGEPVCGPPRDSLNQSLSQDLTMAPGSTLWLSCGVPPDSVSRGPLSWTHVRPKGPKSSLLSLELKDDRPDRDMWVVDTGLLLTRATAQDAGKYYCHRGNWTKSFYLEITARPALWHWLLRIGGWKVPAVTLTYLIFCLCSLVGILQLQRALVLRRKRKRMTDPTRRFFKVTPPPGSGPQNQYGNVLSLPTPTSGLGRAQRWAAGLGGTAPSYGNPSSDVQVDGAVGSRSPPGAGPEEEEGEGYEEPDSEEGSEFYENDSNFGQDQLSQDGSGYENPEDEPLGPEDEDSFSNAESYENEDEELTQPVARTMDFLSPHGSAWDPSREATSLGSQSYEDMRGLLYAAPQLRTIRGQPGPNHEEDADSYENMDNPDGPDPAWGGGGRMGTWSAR
Experimental: Binding of the CD3×CD19 bispecific antibody to cynomoglus CD19 target protein expressed on CHOK1 cells was determined by flow cytometry analysis. In brief, cynomoglus CD19 over-expressed stable cell line (WBP701.CHOK1.cPro1.C9, WuXi Biologics) were harvested with trypsin and diluted to 1×10⁶ cells/ml in 1% BSA/1×PBS. 1×10⁵ cells/well (100 ul) were added to each well of a 96-well U-plate (Corning, #3799) and centrifuged at 1500 rpm (Eppendorf, #5810R) for 5 minutes before removing the supernatant. Antibodies serially diluted in 1% BSA/1×PBS were added at 100 µl/well to the pelleted cells and incubated at 4° C. for 1 hour. A non-related hIgG4 antibody was used as an isotype control. […] Pelleted cells were resuspended in 100 ul/well Fluorescence-labeled anti-human IgG Fc antibody (Jackson, #109-115-098) 1:150 diluted in 1% BSA/1×PBS for 30 minutes at 4° C. in the dark. […] After the final wash, cells were resuspended in 80 ul 1% BSA/1×PBS and fluorescence values were measured with a FACS Canto II cytometer (BD Biosciences). The amount of cell surface bound anti-CD19&CD3 bispecific antibody was assessed by measuring the mean fluorescence (MFI). The FACS raw data were analyzed by FlowJo software, wells containing no antibody or secondary antibody only were used to establish background fluorescence. […]

FcγRIIIb = FcγRIIIb (UniProt O75015 17-200); test: SPR (Biacore), receptor captured on anti-his chip, antibody injected, steady state fit
Sequence of FcγRIIIb (O75015 17-200 limits assumed): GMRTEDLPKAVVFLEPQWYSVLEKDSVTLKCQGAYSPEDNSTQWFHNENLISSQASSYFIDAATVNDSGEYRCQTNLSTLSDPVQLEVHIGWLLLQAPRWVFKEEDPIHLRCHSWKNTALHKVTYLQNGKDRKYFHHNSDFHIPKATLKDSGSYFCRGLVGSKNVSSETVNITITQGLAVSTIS
Experimental: (§1) Antibody binding affinity to FcγRs was detected using Biacore T200 (or Biacore 8K). Each receptor was captured on an anti-his antibody immobilized CMS sensor chip (GE). Antibodies at different concentrations were injected over the sensor chip at a flow rate of 30 uL/min for an association phase of 60 s, followed by 60 s dissociation. The chip was then regenerated by 10 mM glycine (pH 1.5) after each binding cycle.
(§2) The sensorgrams of blank surface and buffer channel were subtracted from the test sensorgrams. The experimental data was fitted by 1:1 model using Langmiur analysis (for FcγRI) or steady state model (for other receptors). A molecular weight of 150 KDa was used to calculate the molar concentration of antibodies.

FcγRIIIa (F176) = FcγRIIIa (F176) (UniProt P08637 17-208); test: as above
Sequence of FcγRIIIa (F176) (P08637 17-208 limits assumed): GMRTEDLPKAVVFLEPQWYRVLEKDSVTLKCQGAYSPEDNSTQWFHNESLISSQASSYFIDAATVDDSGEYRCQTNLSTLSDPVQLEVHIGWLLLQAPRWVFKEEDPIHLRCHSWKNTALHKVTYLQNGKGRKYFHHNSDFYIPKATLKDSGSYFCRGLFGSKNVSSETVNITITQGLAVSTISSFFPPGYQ
Experimental: as §1, §2

FcγRIIIa (V176) = FcγRIIIa (V176) (UniProt P08637 17-208); test: as above
Sequence of FcγRIIIa (V176) (P08637 17-208 F176V limits assumed): as the sequence (P08637 17-208 limits assumed) above, with F160V counted along it
Experimental: as §1, §2

FcγRIIa (H167) = target: T3, FcγRIIa (H167) (UniProt P12318 36-218, limits assumed); test: as above
T3 sequence (looked up): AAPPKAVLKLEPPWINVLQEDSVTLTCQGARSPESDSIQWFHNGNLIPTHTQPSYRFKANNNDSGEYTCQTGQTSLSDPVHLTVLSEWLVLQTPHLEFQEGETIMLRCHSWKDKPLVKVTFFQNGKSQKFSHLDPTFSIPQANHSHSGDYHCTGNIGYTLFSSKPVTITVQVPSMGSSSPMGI
Experimental: as §1, §2

FcγRIIb = target: T4, FcγRIIb (UniProt P31994 46-217, limits assumed); test: as above
T4 sequence (looked up): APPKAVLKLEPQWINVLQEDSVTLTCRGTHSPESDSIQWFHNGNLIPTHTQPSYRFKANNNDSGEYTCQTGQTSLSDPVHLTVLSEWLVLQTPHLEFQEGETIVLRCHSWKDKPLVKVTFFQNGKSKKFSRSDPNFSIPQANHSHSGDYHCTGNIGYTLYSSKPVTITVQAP
Experimental: as §1, §2

human CD3 = target: T5, human CD3 (human, UniProt P07766 23-207); test: flow cytometry on Jurkat cells
T5 construct: whole, on cells; On cells CD3 stands as the full CD3/TCR complex; also called CD3 on Jurkat cells
T5 sequence (P07766 23-207): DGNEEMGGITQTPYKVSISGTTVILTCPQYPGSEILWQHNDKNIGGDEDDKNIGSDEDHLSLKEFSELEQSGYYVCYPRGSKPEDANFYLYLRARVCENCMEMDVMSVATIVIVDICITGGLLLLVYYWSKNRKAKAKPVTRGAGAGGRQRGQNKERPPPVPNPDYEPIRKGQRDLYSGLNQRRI

T1 sequence (P02745 23-245 limits assumed, chain 1 of 3): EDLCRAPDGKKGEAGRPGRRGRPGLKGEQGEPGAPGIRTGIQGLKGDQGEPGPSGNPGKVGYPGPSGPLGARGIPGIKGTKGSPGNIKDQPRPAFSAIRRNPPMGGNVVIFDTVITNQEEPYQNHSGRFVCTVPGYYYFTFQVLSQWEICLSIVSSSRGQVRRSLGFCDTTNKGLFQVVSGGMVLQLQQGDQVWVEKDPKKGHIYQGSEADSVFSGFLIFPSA
T1 sequence (P02746 28-253 limits assumed, chain 2 of 3): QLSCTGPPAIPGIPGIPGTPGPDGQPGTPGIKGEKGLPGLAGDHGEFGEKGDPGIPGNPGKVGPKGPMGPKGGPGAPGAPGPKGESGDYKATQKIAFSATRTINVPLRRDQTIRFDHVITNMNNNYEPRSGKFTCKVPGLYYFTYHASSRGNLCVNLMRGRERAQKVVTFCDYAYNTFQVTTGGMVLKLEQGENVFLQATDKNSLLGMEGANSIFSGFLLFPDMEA
T1 sequence (P02747 29-245 limits assumed, chain 3 of 3): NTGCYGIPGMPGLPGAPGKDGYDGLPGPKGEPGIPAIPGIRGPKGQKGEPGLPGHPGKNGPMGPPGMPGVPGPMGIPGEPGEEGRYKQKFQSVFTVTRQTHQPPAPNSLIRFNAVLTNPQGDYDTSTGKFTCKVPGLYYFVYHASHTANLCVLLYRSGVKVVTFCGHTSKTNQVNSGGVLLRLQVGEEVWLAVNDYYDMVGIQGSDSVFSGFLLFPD

B1: W3438-T3U4.E17-1.uIgG4.SP (bispecific antibody)
light 1: DIVMTQSPDSLAVSLGERATINCKSSQSLLNSRTRKNYLAWYQQKPGQPPKLLIYWASTRQSGVPDRFSGSGSGTDFTLTISSLQAEDVAVYYCTQSHTLRTFGGGTKVEIKPDIQNPDPAVYQLRDSKSSDKSVCLFTDFDSQTQVSQSKDSDVYITDKCVLDMRSMDFKSNSAVAWSQKSDFACANAFQNSIIPEDTFFPSPESS
heavy 1: QVQLVQSGAEVKKPGSSVKVSCKASGFAFTDYYIHWVRQAPGQGLEWMGWISPGNVNTKYNENFKGRVTITADKSTSTAYMELSSLRSEDTAVYYCARDGYSLYYFDYWGQGTLVTVLEDLKNVFPPEVAVFEPSEAEISHTQKATLVCLATGFYPDHVELSWWVNGKEVHSGVCTDPQPLKEQPALQDSRYALSSRLRVSATFWQNPRNHFRCQVQFYGLSENDEWTQDRAKPVTQIVSAEAWGRYGPPCPPCPAPEFLGGPSVFLFPPKPKDTLMISRTPEVTCVVVDVSQEDPEVQFNWYVDGVEVHNAKTKPREEQFNSTYRVVSVLTVLHQDWLNGKEYKCKVSNKGLPSSIEKTISKAKGQPREPQVYTLPPCQEEMTKNQVSLWCLVKGFYPSDIAVEWESNGQPENNYKTTPPVLDSDGSFFLYSRLTVDKSRWQEGNVFSCSVMHEALHNHYTQKSLSLSLGK
light 2: DIQLTQSPSFLSASVGDRVTITCSASSTVNYMHWYQQKPGKAPKLLIYSTSNLASGVPSRFSGSGSGTEFTLTISSLQPEDFATYYCHQWSSYPYTFGQGTKLEIKRTVAAPSVFIFPPSDEQLKSGTASVVCLLNNFYPREAKVQWKVDNALQSGNSQESVTEQDSKDSTYSLSSTLTLSKADYEKHKVYACEVTHQGLSSPVTKSFNRGEC
heavy 2: QMQLVQSGPEVKKPGTSVKVSCKASGYAFTSYNMYWVRQARGQRLEWIGYIDPYNGDTTYNQKFKGRVTITRDMSTSTAYMELSSLRSEDTAVYYCLTTAYAMDYWGQGTLVTVSSASTKGPSVFPLAPCSRSTSESTAALGCLVKDYFPEPVTVSWNSGALTSGVHTFPAVLQSSGLYSLSSVVTVPSSSLGTKTYTCNVDHKPSNTKVDKRVESKYGPPCPPCPAPEFLGGPSVFLFPPKPKDTLMISRTPEVTCVVVDVSQEDPEVQFNWYVDGVEVHNAKTKPREEQFNSTYRVVSVLTVLHQDWLNGKEYKCKVSNKGLPSSIEKTISKAKGQPREPQVCTLPPSQEEMTKNQVSLSCAVKGFYPSDIAVEWESNGQPENNYKTTPPVLDSDGSFFLVSRLTVDKSRWQEGNVFSCSVMHEALHNHYTQKSLSLSLGK
notes: Bispecific, bivalent: one anti-CD3 arm with TCR constant domains and one native anti-CD19 Fab arm, IgG4 S228P Fc with knobs-into-holes; also called WBP3438; CD3×CD19 bispecific antibody; copies: 1 + 1 + 1 + 1
In the case of B1, the binding result (C1Q) is reported as “no binding (tested: about 1500 nM C1q)”, the EC50 (cynomolgus CD19) is reported as 0.026 µM and the Kd (FcγRIIIb) is reported as greater than 41 µM. The Kd (FcγRIIIa (F176)) was 29.3 µM, the Kd (FcγRIIIa (V176)) was 14 µM and the Kd (FcγRIIa (H167)) was 20.5 µM. It also gave a Kd (FcγRIIb) of 24.1 µM and an EC50 (human CD3) of 0.047 µM.
